Experimental findings from publication PMC7382241 (2020) are described below.

Where “and” joins values, the source holds several entries; their conditions need not be identical. Equal entries are not always repeated.

In the experiment the target is N-terminal AVI-tagged and biotinylated FKBP12 (human, UniProt P62942 1-108, biotin (biotinylated AVI tag)). In words: SPR.
N-terminal AVI-tagged and biotinylated FKBP12, sequence (P62942 whole entry): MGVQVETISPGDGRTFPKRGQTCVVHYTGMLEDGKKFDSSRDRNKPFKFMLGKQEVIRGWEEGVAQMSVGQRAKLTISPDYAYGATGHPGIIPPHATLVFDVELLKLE

B1: recombinant CEP250_(29.2) (residues 1,981 to 2,281) (domain or fragment)
chain: EQHLLEQAELSRSLEASTATLQASLDACQAHSRQLEEALRIQEGEIQDQDLRYQEDVQQLQQALAQRDEELRHQQEREQLLEKSLAQRVQENMIQEKQNLGQEREEEEIRGLHQSVRELQLTLAQKEQEILELRETQQRNNLEALPHSHKTSPMEEQSLKLDSLEPRLQRELERLQAALRQTEAREIEWREKAQDLALSLAQTKASVSSLQEVAMFLQASVLERDSEQQRLQDELELTRRALEKERLHSPGATSTAELGSRGEQGVQLGEVSGVEAEPSPDGMEKQSWRQRLEHLQQAVAR
Consider B1, for which the Kd was 37.6 nM and 23.4 nM and 57.7 nM.

B2: CEP250_(11.4) (residues 2,134 to 2,231) (domain or fragment)
chain: MEEQSLKLDSLEPRLQRELERLQAALRQTEAREIEWREKAQDLALSLAQTKASVSSLQEVAMFLQASVLERDSEQQRLQDELELTRRALEKERLHSPG
Turning to B2, the Kd is 32.5 nM and 32.7 nM and 41.2 nM.
